Results from the supplement of paper PMC11246515.
± gives the standard deviation of the averaged measurements.

Assay: total protein half-life in vivo (active degradation + dilution); higher = more stable protein
[1] = E. coli NCM3722 delta-clpP, growth: N-lim chemostat, doubling time 6 h
[2] = E. coli NCM3722 delta-hslV, growth: N-lim chemostat, doubling time 6 h
[3] = E. coli NCM3722 delta-lon, growth: N-lim chemostat, doubling time 6 h
[4] = E. coli NCM3722 delta-smpB, growth: N-lim chemostat, doubling time 6 h
[5] = wild type E. coli NCM3722, growth: C-lim chemostat, doubling time 3 h
[6] = wild type E. coli NCM3722, growth: C-lim chemostat, doubling time 6 h
[7] = wild type E. coli NCM3722, growth: C-lim chemostat, doubling time 12 h
[8] = wild type E. coli NCM3722, growth: N-lim chemostat, doubling time 6 h
[9] = wild type E. coli NCM3722, growth: N-lim chemostat, doubling time 12 h
[10] = wild type E. coli NCM3722, growth: P-lim chemostat, doubling time 6 h
[11] = wild type E. coli NCM3722, growth: P-lim chemostat, doubling time 12 h
[12] = E. coli NCM3722 delta-clpP delta-lon delta-hslV, growth: N-lim chemostat, doubling time 6 h

| Sequence | total protein half-life in vivo [1] | total protein half-life in vivo [2] | total protein half-life in vivo [3] | total protein half-life in vivo [4] | total protein half-life in vivo [5] | total protein half-life in vivo [6] | total protein half-life in vivo [7] | total protein half-life in vivo [8] | total protein half-life in vivo [9] | total protein half-life in vivo [10] | total protein half-life in vivo [11] | total protein half-life in vivo [12] |
| --- | --- | --- | --- | --- | --- | --- | --- | --- | --- | --- | --- | --- |
| MNIIAIMGPHGVFYKDEPIKELESALVAQGFQIIWPQNSVDLLKFIEHNPRICGVIFDWDEYSLDLCSDINQLNEYLPLYAFINTHSTMDVSVQDMRMALWFFEYALGQAEDIAIRMRQYTDEYLDNITPPFTKALFTYVKERKYTFCTPGHMGGTAYQKSPVGCLFYDFFGGNTLKADVSISVTELGSLLDHTGPHLEAEEYIARTFGAEQSYIVTNGTSTSNKIVGMYAAPSGSTLLIDRNCHKSLAHLLMMNDVVPVWLKPTRNALGILGGIPRREFTRDSIEEKVAATTQAQWPVHAVITNSTYDGLLYNTDWIKQTLDVPSIHFDSAWVPYTHFHPIYQGKSGMSGERVAGKVIFETQSTHKMLAALSQASLIHIKGEYDEEAFNEAFMMHTTTSPSYPIVASVETAAAMLRGNPGKRLINRSVERALHFRKEVQRLREESDGWFFDIWQPPQVDEAECWPVAPGEQWHGFNDADADHMFLDPVKVTILTPGMDEQGNMSEEGIPAALVAKFLDERGIVVEKTGPYNLLFLFSIGIDKTKAMGLLRGLTEFKRSYDLNLRIKNMLPDLYAEDPDFYRNMRIQDLAQGIHKLIRKHDLPGLMLRAFDTLPEMIMTPHQAWQRQIKGEVETIALEQLVGRVSANMILPYPPGVPLLMPGEMLTKESRTVLDFLLMLCSVGQHYPGFETDIHGAKQDEDGVYRVRVLKMAG | 5.56 ± 0.19 h | 5.32 ± 0.2 h | 5.36 ± 0.26 h | 5.38 ± 0.089 h | 3.21 ± 0.1 h | 7.21 ± 0.98 h | 10.7 ± 3.7 h | 6.16 ± 1.5 h | 10.7 ± 0.83 h | 6.88 ± 1.5 h | 11.92 ± 0.053 h |  |
| MNILGFFQRLGRALQLPIAVLPVAALLLRFGQPDLLNVAFIAQAGGAIFDNLALIFAIGVASSWSKDSAGAAALAGAVGYFVLTKAMVTINPEINMGVLAGIITGLVGGAAYNRWSDIKLPDFLSFFGGKRFVPIATGFFCLVLAAIFGYVWPPVQHAIHAGGEWIVSAGALGSGIFGFINRLLIPTGLHQVLNTIAWFQIGEFTNAAGTVFHGDINRFYAGDGTAGMFMSGFFPIMMFGLPGAALAMYFAAPKERRPMVGGMLLSVAVTAFLTGVTEPLEFLFMFLAPLLYLLHALLTGISLFVATLLGIHAGFSFSAGAIDYALMYNLPAASQNVWMLLVMGVIFFAIYFVVFSLVIRMFNLKTPGREDKEDEIVTEEANSNTEEGLTQLATNYIAAVGGTDNLKAIDACITRLRLTVADSARVNDTMCKRLGASGVVKLNKQTIQVIVGAKAESIGDAMKKVVARGPVAAASAEATPATAAPVAKPQAVPNAVSIAELVSPITGDVVALDQVPDEAFASKAVGDGVAVKPTDKIVVSPAAGTIVKIFNTNHAFCLETEKGAEIVVHMGIDTVALEGKGFKRLVEEGAQVSAGQPILEMDLDYLNANARSMISPVVCSNIDDFSGLIIKAQGHIVAGQTPLYEIKK | 6.68 ± 1.1 h | 6.55 ± 1.2 h | 5.86 ± 0.12 h | 5.83 ± 0.32 h | 3.142 ± 0.004 h | 5.88 ± 0.17 h | 11.9 ± 1.4 h | 5.91 ± 0.66 h | 11.5 ± 0.56 h | 6.04 ± 0.14 h | 12.6 ± 0.78 h | 6.3 ± 0.38 h |
| MNILQFNVRLAEGGAAGVALDLHQRALQQGLASHFVYGYGKGGKESVSHQNYPQVIKHTPRMTAMANIALFRLFNRDLFGNFNELYRTITRTAGPVVLHFHVLHSYWLNLKSVVRFCEKVKNHKPDVTLVWTLHDHWSVTGRCAFTDGCEGWKTGCQKCPTLNNYPPVKIDRAHQLVAGKRQLFREMLALGCQFISPSQHVADAFNSLYGPGRCRIINNGIDMATEAILADLPPVRETQGKPKIAVVAHDLRYDGKTNQQLVREMMALGDKIELHTFGKFSPFTAGNVVNHGFETDKRKLMSALNQMDALVFSSRVDNYPLILCEALSIGVPVIATHSDAAREVLQKSGGKTVSEEEVLQLVQLSKPEIAQAIFGTTLAEFSQRSRAAYSGQQMLEEYVNFYQNL |  |  | 5.88 ± 0.64 h | 5.05 ± 0.76 h |  |  |  |  |  |  |  |  |
| MNINRDKIVQLVDTDTIENLTSALSQRLIADQLRLTTAESCTGGKLASALCAAEDTPKFYGAGFVTFTDQAKMKILSVSQQSLERYSAVSEKVAAEMATGAIERADADVSIAITGYGGPEGGEDGTPAGTVWFAWHIKGQNYTAVMHFAGDCETVLALAVRFALAQLLQLLL | 4.57 ± 0.048 h | 4.76 ± 0.46 h | 5.18 ± 0.69 h | 4.38 ± 0.19 h | 3.14 ± 0.69 h | 6.15 ± 0.4 h | 9.68 h | 4.8 ± 0.062 h | 11.1 ± 3.5 h | 5.68 ± 0.57 h | 12.6 ± 0.67 h | 4.97 ± 0.3 h |
| MNINVAELLNGNYILLLFVVLALGLCLGKLRLGSIQLGNSIGVLVVSLLLGQQHFSINTDALNLGFMLFIFCVGVEAGPNFFSIFFRDGKNYLMLALVMVGSALVIALGLGKLFGWDIGLTAGMLAGSMTSTPVLVGAGDTLRHSGMESRQLSLALDNLSLGYALTYLIGLVSLIVGARYLPKLQHQDLQTSAQQIARERGLDTDANRKVYLPVIRAYRVGPELVAWTDGKNLRELGIYRQTGCYIERIRRNGILANPDGDAVLQMGDEIALVGYPDAHARLDPSFRNGKEVFDRDLLDMRIVTEEVVVKNHNAVGKRLAQLKLTDHGCFLNRVIRSQIEMPIDDNVVLNKGDVLQVSGDARRVKTIADRIGFISIHSQVTDLLAFCAFFVIGLMIGMITFQFSTFSFGMGNAAGLLFAGIMLGFMRANHPTFGYIPQGALSMVKEFGLMVFMAGVGLSAGSGINNGLGAIGGQMLIAGLIVSLVPVVICFLFGAYVLRMNRALLFGAMMGARTCAPAMEIISDTARSNIPALGYAGTYAIANVLLTLAGTIIVMVWPGLG | 6.38 ± 1 h |  |  | 6.19 ± 0.91 h |  | 7.06 ± 0.39 h |  | 6.17 ± 0.47 h |  | 7.316 ± 0.023 h | 12 ± 2.5 h | 6.56 ± 0.66 h |
| MNIRRKNRLWIACAVLAGLALTIGLVLYALRSNIDLFYTPGEILYGKRETQQMPEVGQRLRVGGMVMPGSVQRDPNSLKVTFTIYDAEGSVDVSYEGILPDLFREGQGVVVQGELEKGNHILAKEVLAKHDENYTPPEVEKAMEANHRRPASVYKDPAS | 4.46 h | 4.36 ± 0.36 h | 4.62 ± 0.13 h | 4.65 ± 0.1 h | 2.91 ± 0.059 h | 6.09 ± 0.43 h | 8.92 ± 0.19 h | 4.31 ± 0.63 h | 9.42 ± 2.7 h | 4.67 h | 10.05 ± 0.046 h | 5.21 ± 0.82 h |
